Test results from patent publication US20070248589A1 (GOVERNMENT OF THE UNITED STATES OF AMERICA AS REPRESENTED …, published 2007).

T1: Uba3/AppBP1 protein complex (Mus musculus, UniProt Q8C878)
T1 construct: Myc-tagged, full-length mouse Uba3; host or cells: cell-free: TNT Coupled Reticulocyte Lysate System, 35S-methionine labelled
T1 sequence (Q8C878 22-462 V120X/V142X/I148X/P243X limits assumed): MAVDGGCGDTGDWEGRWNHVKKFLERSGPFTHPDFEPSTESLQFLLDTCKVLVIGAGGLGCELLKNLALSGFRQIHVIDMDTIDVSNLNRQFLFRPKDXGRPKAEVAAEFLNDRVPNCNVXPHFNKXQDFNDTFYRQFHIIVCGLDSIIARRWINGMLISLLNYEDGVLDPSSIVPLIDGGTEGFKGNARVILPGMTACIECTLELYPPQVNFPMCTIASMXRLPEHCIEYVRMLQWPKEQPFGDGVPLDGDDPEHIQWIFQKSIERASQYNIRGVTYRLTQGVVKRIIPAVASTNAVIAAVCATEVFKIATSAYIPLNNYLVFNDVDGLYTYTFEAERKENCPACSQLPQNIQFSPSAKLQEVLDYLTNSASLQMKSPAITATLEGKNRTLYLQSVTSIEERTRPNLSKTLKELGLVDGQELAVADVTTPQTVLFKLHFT

T2: GST-SPATIAL(L) (Mus musculus, UniProt Q7TSD4)
T2 construct: made in house
T2 sequence (Q7TSD4 with tags, fused parts or gaps isoform Q7TSD4-6 limits assumed): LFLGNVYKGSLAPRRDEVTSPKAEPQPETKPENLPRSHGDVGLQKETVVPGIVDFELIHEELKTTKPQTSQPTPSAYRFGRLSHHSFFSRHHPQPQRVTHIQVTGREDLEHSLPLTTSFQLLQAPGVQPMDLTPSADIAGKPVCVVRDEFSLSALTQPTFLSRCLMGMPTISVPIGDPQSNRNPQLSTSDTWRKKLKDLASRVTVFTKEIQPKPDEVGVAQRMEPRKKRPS


How the values were obtained:
[1] = molecular target: T1, Uba3/AppBP1 protein complex; test: GST pulldown and immunoprecipitation, Uba3 and AppBP1 interaction; assay type: binding; settings: FIG. 4
Procedure: To determine whether SPATIAL has an effect on the neddylation pathway, cDNAs for each of the components of the Nedd8 conjugation pathway were obtained from EST depositories (AppBP1, GenBank Accession No. BC00480; Uba3, GenBank Accession No. BC002002). These cDNAs were used to produce radiolabeled proteins by in vitro transcription and translation.
The effect of SPATIAL on the first step of the pathway, the interaction between Uba3 and AppBP1, was tested using a GST pulldown assay
In a typical GST pulldown assay, GST and GST-SPATIAL were prepared from transformed bacterial cultures as previously described (e.g., Ausubel et al., Current Protocols in Molecular Biology, Greene Publishing Associates, updated November 2003, Chapter 20, Analysis of Protein Interactions, Unit 20.2, Affinity Purification of Proteins Binding to GST Fusion Proteins). After purification, GST and GST-SPATIAL proteins were mixed with glutathione-sepharose beads and the mixtures were frozen in 200 μl aliquots. The amount of protein bound to the beads was quantitated using a colormetric assay (BCA assay; Pierce-Endogen).
Uba3 and AppBP1 were in vitro translated and ^35S-methionine labeled using 0.5 μg of the respective expression plasmids in a 50 μl reaction using TNT® Coupled Reticulocyte Lysate Systems (Promega) by following the manufacturer's instructions. […]

GST-SPATIAL(L) = molecular target: T2, GST-SPATIAL(L); test: GST pulldown assay with GST-SPATIAL long isoform; assay type: binding; settings: 35S-methionine labeled in vitro translated protein
Procedure: Eighteen cDNA clones identified in the yeast two-hybrid system were tested in an in vitro glutathione-S-transferase (GST) pulldown assay, as described in Ausubel et al., Current Protocols in Molecular Biology, Greene Publishing Associates, updated November 2003, Chapter 20, Analysis of Protein Interactions, Unit 20.2, Affinity Purification of Proteins Binding to GST Fusion Proteins.
Briefly, a GST-SPATIAL fusion construct was produced by cloning SPATIAL cDNA(s) into pGEx5X1 expression vector using standard molecular cloning techniques. GST or GST-SPATIAL fusion protein were expressed in 1-1000 ml bacterial cultures grown for 3-4 hours until OD600 reached 0.5. Then, plasmid expression was induced for 1.5-4 hours by the addition of ITPG to a final concentration of 0.11 mM. GST or GST-fusion proteins were purified using glutathione-Sepharose beads as described in Ausubel et al., Current Protocols in Molecular Biology, Greene Publishing Associates, updated November 2003, Chapter 20, Analysis of Protein Interactions, Unit 20.2, Affinity Purification of Proteins Binding to GST Fusion Proteins.
A coupled in vitro transcription and translation system (Promega) was used according to the manufacturer's instructions to produce radiolabeled protein from cDNAs to be tested. Radiolabeled proteins were mixed with either purified GST or GST-SPATIAL. Then, GST-containing protein complexes were purified by centrifugation from the reaction mixtures using glutathione-coated Sepharose beads. Bound proteins were eluted from the beads with SDS-PAGE loading buffer heated to 72-85° C., separated on polyacrylamide gels, and visualized by autoradiography. Specific interactions between GST-SPATIAL and in vitro translated proteins were indicated by the presence of a radiolabeled in vitro translated protein in the GST-SPATIAL-containing samples, but not in the GST-alone samples.
GST pulldown assays were performed as described in Example 9 using GST-SPATIAL(L) and GST-SPATIAL(S) and each of the Uba3 mutants described in this example.

293T cells = test: Uba3 co-transfection with SPATIAL-EGFP, growth arrest; assay type: cell-based, human; settings: transient over expression, 0.5, 2.5 or 4.5 μg/well Uba3 plasmid, FIG. 9
Procedure: To determine whether Uba3 is involved in SPATIAL mediated growth suppression, co-transfections were done using increasing amounts of an Uba3 expression vector with constant amounts of SPATIAL-EGFP or EGFP.
4×10^5 293T cells were transfected in 6 well plates using 5 μg of a mixture of plasmids. The plasmids used were pEGFP-N1 (0.5 μg/well), pEGFP-SPATIAL(L) (0.5 μg/well), pcDNA3.1 Myc/his M Uba3 (0.5, 2.5 or 4.5 μg/well) (pcDNA3.1 myc/His may be obtained from Invitrogen), and pWL-neo (4 or 2 μg/well). The plasmid pWL-neo (Stratagene) was used as a control plasmid to make sure that the total DNA in each transfection totaled 5 μg. Transfections were done using Lipofectamine 2000 using manufacturers instructions (Invitrogen).
Twenty four hours after transfection, the cells were trypsinized and re-plated onto 10 cm dishes and cultured for up to 6 days. The number of EGFP-positive cells were determine at 24, 36 and 144 hours after transfection by harvesting the cells, counting and FACS analysis to determine the percentage of EGFP-positive cells.

effect on Uba3 binding to AppBP1 [1]	interaction with GST-SPATIAL(L) (GST-SPATIAL(L))	Molecule	effect on growth inhibition of SPATIAL-EGFP transfected cells (293T cells)
interferes with Uba3 binding to AppBP1		GST-SPATIAL: glutathione-S-transferase SPATIAL fusion protein (protein, left off: a dimerising Fc or GST, glutathione-S-transferase SPATIAL fusion protein) LFLGNVYKGSLAPRRDEVTSPKAEPQPETKPENLPRSHGDVGLQKETVVPGIVDFELIHEELKTTKPQTSQPTPSAYRFGRLSHHSFFSRHHPQPQRVTHIQVTGREDLEHSLPLTTSFQLLQAPGVQPMDLTPSADIAGKPVCVVRDEFSLSALTQPTFLSRCLMGMPTISVPIGDPQSNRNPQLSTSDTWRKKLKDLASRVTVFTKEIQPKPDEVGVAQRMEPRKKRPS	
	specifically bound	Uba3: catalytic subunit of NEDD8 activating enzyme, a 441-amino acid protein (SEQ ID NO: 6) (protein, listed as Mus musculus, (99)..(99) The ′Xaa′ at location 99 stands for Val.; (121)..(121) The ′Xaa′ at location 121 stands for Val.; (127)..(127) The ′Xaa′ at location 127 stands for Ile.; (222)..(222) The ′Xaa′ at location 222 stands for Pro.) MAVDGGCGDTGDWEGRWNHVKKFLERSGPFTHPDFEPSTESLQFLLDTCKVLVIGAGGLGCELLKNLALSGFRQIHVIDMDTIDVSNLNRQFLFRPKDXGRPKAEVAAEFLNDRVPNCNVXPHFNKXQDFNDTFYRQFHIIVCGLDSIIARRWINGMLISLLNYEDGVLDPSSIVPLIDGGTEGFKGNARVILPGMTACIECTLELYPPQVNFPMCTIASMXRLPEHCIEYVRMLQWPKEQPFGDGVPLDGDDPEHIQWIFQKSIERASQYNIRGVTYRLTQGVVKRIIPAVASTNAVIAAVCATEVFKIATSAYIPLNNYLVFNDVDGLYTYTFEAERKENCPACSQLPQNIQFSPSAKLQEVLDYLTNSASLQMKSPAITATLEGKNRTLYLQSVTSIEERTRPNLSKTLKELGLVDGQELAVADVTTPQTVLFKLHFT	overcomes the growth inhibition
